These are literature values, as cited in patent US7930157B2, “Computational method and apparatus for predicting polypeptide aggregation or solubility” (Cambridge University Technical Services Ltd., priority 2003, dated 2011).

Read-outs that look alike come from different tables or passages of the source. Where no end group is shown, it is not given here.

For data set [1] the following is noted: for hydrophobicity: neutral pH, based on partition coefficients from water to octanol.
The conditions of data set [2]: for charge: neutral pH.
For data set [3] the following is noted: normalised from 0 (high β-sheet propensity) to 1 (low); glycine from theoretical calculations.
The conditions of data set [4]: experimental aggregation rate of mutant relative to wild type; growth phase only.
The conditions of data set [5]: compared to the human calcitonin sequence.
[6] abbreviates: pH lower than 6.0, histidine positively charged.
Setting [7] is: τ obtained using T1 (nucleation time).
The mark [8] stands for this setting: τ obtained using T2 (half time of aggregation).

For the compound `N[C@@H](CCC(=O)O)C(=O)O` [Glu (E), Glu], in data set [1], the hydrophobicity was 0.696 kcal/mol. On to `N[C@@H](Cc1c[nH]cn1)C(=O)O` [His (H), His], for which the “hydrophobicity (value in brackets)” value in data set [1] (setting [6]) is 0.686 kcal/mol. The “charge (value in brackets)” value in data set [2] (setting [6]) is “+1”. As for `NCCCC[C@H](N)C(=O)O` [Lys (K), Lys], in data set [1], the hydrophobicity is 0.662 kcal/mol. For the same compound, the β-sheet propensity in data set [3] was 0.34. The charge result in data set [2] is on record as “+1”. Turning to `N[C@@H](Cc1c[nH]c2ccccc12)C(=O)O` [Trp (W), Trp], the hydrophobicity in data set [1] was -0.509 kcal/mol. Besides, the β-sheet propensity in data set [3] is 0.24. The charge in data set [2] was 0. In the case of “F23A: single-point mutation F23A of amylin (islet amyloid polypeptide), ref. 11 (KCNTATCATQRLANFLVHSSNNAGAILSSTNVGSNTY; ends and bridges not checked; cysteine pairing not given here; UniProt P10997 34-70, looked up, variant F23A)”, the “observed ln (νmut/νwt)” value in data set [4] was −2.65. For the compound “G24A: single-point mutation G24A of amylin (islet amyloid polypeptide), ref. 11 (KCNTATCATQRLANFLVHSSNNFAAILSSTNVGSNTY; ends and bridges not checked; cysteine pairing not given here; UniProt P10997 34-70, looked up, variant G24A)”, the “observed ln (νmut/νwt)” value in data set [4] is on record as −0.03. As to “I26A: single-point mutation I26A of amylin (islet amyloid polypeptide), ref. 11 (KCNTATCATQRLANFLVHSSNNFGAALSSTNVGSNTY; ends and bridges not checked; cysteine pairing not given here; UniProt P10997 34-70, looked up, variant I26A)”, in data set [4], the “observed ln (νmut/νwt)” value was −2.39. As for “L27A: single-point mutation L27A of amylin (islet amyloid polypeptide), ref. 11 (KCNTATCATQRLANFLVHSSNNFGAIASSTNVGSNTY; ends and bridges not checked; cysteine pairing not given here; UniProt P10997 34-70, looked up, variant L27A)”, the “observed ln (νmut/νwt)” value in data set [4] is reported as −0.93. Consider “N22A: single-point mutation N22A of amylin (islet amyloid polypeptide), ref. 11 (KCNTATCATQRLANFLVHSSNAFGAILSSTNVGSNTY; ends and bridges not checked; cysteine pairing not given here; UniProt P10997 34-70, looked up, variant N22A)”, for which, in data set [4], the “observed ln (νmut/νwt)” value is on record as 0.69. Regarding “S20G: single-point mutation S20G of amylin, ref. 12 (KCNTATCATQRLANFLVHSGNNFGAILSSTNVGSNTY; ends and bridges not checked; cysteine pairing not given here; UniProt P10997 34-70, looked up, variant S20G)”, in data set [4], the “observed ln (νmut/νwt)” value is recorded as 1.01. Regarding “SEQ ID NO 14: calcitonin sequence reported in Zurdo & Dobson (WO 02/083734), 6 modified positions when compared to the human sequence (CGNLSTCMLGKLTQELRKLHTFPQTAIGVGAP; ends and bridges not checked; cysteine pairing not given here)”, in data set [5] (setting [7]), the “Observed (τmut/τwt)” value is 300 and the “observed ln (νmut/νwt)” value was −5.71. For the same compound, in data set [5] (setting [8]), the “Observed (τmut/τwt)” value is 100 and the “observed ln (νmut/νwt)” value is on record as −4.61.
